Assay results as given in patent US20210253718A1 (MODMAB THERAPEUTICS, published 2021).

T1: FZD3 cysteine-rich domain (CRD), MYC-tagged and GPI-anchored on CHO cells (human, UniProt Q9NPG1 24-150, GPI anchor)
T1 construct: domain: cysteine-rich domain (CRD); also called FZD3 CRD; CHO-myc-FZDGPI; not shown: MYC tag and GPI anchor signal
T1 sequence (looked up): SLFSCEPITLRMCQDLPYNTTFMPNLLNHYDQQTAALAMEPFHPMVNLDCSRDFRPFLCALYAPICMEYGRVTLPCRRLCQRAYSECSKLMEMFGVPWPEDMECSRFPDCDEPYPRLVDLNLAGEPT

T2: FZD4 cysteine-rich domain (CRD), MYC-tagged and GPI-anchored on CHO cells (human, UniProt Q9ULV1 42-167, GPI anchor)
T2 construct: also called FZD4 CRD; CHO-myc-FZDGPI; not shown: MYC tag and GPI anchor signal
T2 sequence: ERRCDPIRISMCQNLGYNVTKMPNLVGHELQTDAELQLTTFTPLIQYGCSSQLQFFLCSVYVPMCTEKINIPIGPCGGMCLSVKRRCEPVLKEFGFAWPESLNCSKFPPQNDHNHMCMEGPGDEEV

T3: FZD5 cysteine-rich domain (CRD), MYC-tagged and GPI-anchored on CHO cells (human, UniProt Q13467 29-156, GPI anchor)
T3 construct: also called FZD5 CRD; CHO-myc-FZDGPI; not shown: MYC tag and GPI anchor signal
T3 sequence: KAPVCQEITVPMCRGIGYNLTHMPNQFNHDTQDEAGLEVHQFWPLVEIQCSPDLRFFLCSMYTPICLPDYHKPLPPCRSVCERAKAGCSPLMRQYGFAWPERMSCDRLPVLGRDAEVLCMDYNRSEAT

T4: FZD6 cysteine-rich domain (CRD), MYC-tagged and GPI-anchored on CHO cells (human, UniProt O60353 20-146, GPI anchor)
T4 construct: also called FZD6 CRD; CHO-myc-FZDGPI; not shown: MYC tag and GPI anchor signal
T4 sequence: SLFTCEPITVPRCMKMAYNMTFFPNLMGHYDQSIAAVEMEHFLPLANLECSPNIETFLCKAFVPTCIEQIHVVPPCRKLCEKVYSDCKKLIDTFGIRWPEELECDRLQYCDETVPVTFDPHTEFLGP

T5: FZD8 cysteine-rich domain (CRD), MYC-tagged and GPI-anchored on CHO cells (human, UniProt Q498S8 31-155 (rat entry), GPI anchor)
T5 construct: also called FZD8 CRD; CHO-myc-FZDGPI; not shown: MYC tag and GPI anchor signal
T5 sequence: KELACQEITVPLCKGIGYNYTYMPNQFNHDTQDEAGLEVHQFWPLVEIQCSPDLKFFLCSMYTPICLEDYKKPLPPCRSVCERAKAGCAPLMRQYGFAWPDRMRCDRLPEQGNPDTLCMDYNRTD

T6: FZD9 cysteine-rich domain (CRD), MYC-tagged and GPI-anchored on CHO cells (human, UniProt O00144 35-161, GPI anchor)
T6 construct: also called FZD9 CRD; CHO-myc-FZDGPI; not shown: MYC tag and GPI anchor signal
T6 sequence: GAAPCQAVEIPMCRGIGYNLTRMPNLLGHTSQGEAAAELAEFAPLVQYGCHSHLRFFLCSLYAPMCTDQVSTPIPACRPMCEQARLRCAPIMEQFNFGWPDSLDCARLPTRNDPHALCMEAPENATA

T7: FZD10 cysteine-rich domain (CRD), MYC-tagged and GPI-anchored on CHO cells (human, UniProt Q9ULW2 30-156, GPI anchor)
T7 construct: also called FZD10 CRD; CHO-myc-FZDGPI; not shown: MYC tag and GPI anchor signal
T7 sequence: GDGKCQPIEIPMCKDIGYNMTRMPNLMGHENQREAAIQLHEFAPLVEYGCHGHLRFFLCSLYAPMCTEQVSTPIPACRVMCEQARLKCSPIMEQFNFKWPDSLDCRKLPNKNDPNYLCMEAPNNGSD


Columns and labels:
[1] = biological target: FZD1 cysteine-rich domain (CRD), MYC-tagged and GPI-anchored on CHO cells (human); test: flow cytometry, CHO-CRD cells;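 note: flow cytometry of Fab binding to CHO cells overexpressing a Frizzled CRD, with binding defined as median fluorescence over twice that of CHO cells lacking any Frizzled CRD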
Method: (§1) Binding was measured via flow cytometry analysis of CHO cells overexpressing CRD of FZD1, FZD2, FZD3, FZD4, FZD5, FZD6, FZD7, FZD8, FZD9 or FZD10. Median fluorescence values are shown.

[2] = biological target: FZD2 cysteine-rich domain (CRD), MYC-tagged and GPI-anchored on CHO cells (human, UniProt Q14332 35-161); test: flow cytometry, CHO-CRD cells;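 note: flow cytometry of Fab binding to CHO cells overexpressing a Frizzled CRD, with binding defined as median fluorescence over twice that of CHO cells lacking any Frizzled CRD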
Method: as §1

[3] = biological target: T1, FZD3 cysteine-rich domain (CRD), …; test: flow cytometry, CHO-CRD cells;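 note: flow cytometry of Fab binding to CHO cells overexpressing a Frizzled CRD, with binding defined as median fluorescence over twice that of CHO cells lacking any Frizzled CRD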
Method: as §1

[4] = biological target: T2, FZD4 cysteine-rich domain (CRD), …; test: flow cytometry, CHO-CRD cells;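 note: flow cytometry of Fab binding to CHO cells overexpressing a Frizzled CRD, with binding defined as median fluorescence over twice that of CHO cells lacking any Frizzled CRD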
Method: as §1

[5] = biological target: T3, FZD5 cysteine-rich domain (CRD), …; test: flow cytometry, CHO-CRD cells
Method: as §1

[6] = biological target: T4, FZD6 cysteine-rich domain (CRD), …; test: flow cytometry, CHO-CRD cells
Method: as §1

[7] = biological target: FZD7 cysteine-rich domain (CRD), MYC-tagged and GPI-anchored on CHO cells (human, UniProt O75084 45-169); test: flow cytometry, CHO-CRD cells
Method: as §1

[8] = biological target: T5, FZD8 cysteine-rich domain (CRD), …; test: flow cytometry, CHO-CRD cells
Method: as §1

[9] = biological target: T6, FZD9 cysteine-rich domain (CRD), …; test: flow cytometry, CHO-CRD cells
Method: as §1

[10] = biological target: T7, FZD10 cysteine-rich domain (CRD), …; test: flow cytometry, CHO-CRD cells
Method: as §1

[11] = biological target: T1, FZD3 cysteine-rich domain (CRD), …; test: immunofluorescence, CHO-CRD cells
[12] = biological target: T2, FZD4 cysteine-rich domain (CRD), …; test: immunofluorescence, CHO-CRD cells
[13] = biological target: T4, FZD6 cysteine-rich domain (CRD), …; test: immunofluorescence, CHO-CRD cells
[14] = biological target: T6, FZD9 cysteine-rich domain (CRD), …; test: immunofluorescence, CHO-CRD cells
[15] = biological target: T7, FZD10 cysteine-rich domain (CRD), …; test: immunofluorescence, CHO-CRD cells

| median fluorescence [1] | median fluorescence [2] | median fluorescence [3] | median fluorescence [4] | median fluorescence [5] | median fluorescence [6] | median fluorescence [7] | median fluorescence [8] | median fluorescence [9] | median fluorescence [10] | binding result [11] | binding result [12] | binding result [13] | binding result [14] | binding result [15] | Binder |
| --- | --- | --- | --- | --- | --- | --- | --- | --- | --- | --- | --- | --- | --- | --- | --- |
| 40.3 | 18.9 | 4.61 | 5.52 | 31.9 | 3.59 | 18.4 | 8.9 | 3.82 | 3.72 | no binding | no binding | no binding | no binding | no binding | Fab-2914 (Fab, V domains shown, Fab; also called Fv-2914) VH: EVQLVESGGGLVQPGGSLRLSCAASGFNIYYSYMHWVRQAPGKGLEWVASIYPSSSSTSYADSVKGRFTISADTSKNTAYLQMNSLRAEDTAVYYCARGAMDYWGQGTLVTVSS VL: DIQMTQSPSSLSASVGDRVTITCRASQSVSSAVAWYQQKPGKAPKLLIYSASSLYSGVPSRFSGSRSGTDFTLTISSLQPEDFATYYCQQWYYGSLITFGQGTKVEIK |
| 14.9 | 13.5 | 5.05 | 6.26 | 32 | 4.49 | 36.9 | 12.7 | 4.57 | 4.26 | no binding | no binding | no binding | no binding | no binding | Fab-2898 (Fab, V domains shown, Fab; also called Fv-2898) VH: EVQLVESGGGLVQPGGSLRLSCAASGFNIYSYSMHWVRQAPGKGLEWVASIYSSSGSTSYADSVKGRFTISADTSKNTAYLQMNSLRAEDTAVYYCARAVWGLDYWGQGTLVTVSS VL: DIQMTQSPSSLSASVGDRVTITCRASQSVSSAVAWYQQKPGKAPKLLIYSASSLYSGVPSRFSGSRSGTDFTLTISSLQPEDFATYYCQQWWGYYSLITFGQGTKVEIK |
| 34.3 | 18.9 | 4.53 | 6.1 | 24.1 | 3.49 | 36.2 | 7.37 | 3.52 | 2.94 | no binding | no binding | no binding | no binding | no binding | Fab-2916 (Fab, V domains shown, Fab) VH: EVQLVESGGGLVQPGGSLRLSCAASGFNISYSSIHWVRQAPGKGLEWVASIYPSYSYTYYADSVKGRFTISADTSKNTAYLQMNSLRAEDTAVYYCARYGYYGMDYWGQGTLVTVSS VL: DIQMTQSPSSLSASVGDRVTITCRASQSVSSAVAWYQQKPGKAPKLLIYSASSLYSGVPSRFSGSRSGTDFTLTISSLQPEDFATYYCQQWYHYPYLITFGQGTKVEIK |
| 17.5 | 14.1 | 4.61 | 5.57 | 27.1 | 3.82 | 34.9 | – | 3.79 | 3.75 | no binding | no binding | no binding | no binding | no binding | Fab-2913 (Fab, V domains shown, Fab; also called Fv-2913) VH: EVQLVESGGGLVQPGGSLRLSCAASGFNISYSSIHWVRQAPGKGLEWVASIYPYSSSTSYADSVKGRFTISADTSKNTAYLQMNSLRAEDTAVYYCARYGYYGLDYWGQGTLVTVSS VL: DIQMTQSPSSLSASVGDRVTITCRASQSVSSAVAWYQQKPGKAPKLLIYSASSLYSGVPSRFSGSRSGTDFTLTISSLQPEDFATYYCQQWGVSHYLFTFGQGTKVEIK |
